Assay [1] has as its target talin R3-IVVI domain.
The target of assay [2] is talin R3-IVVI domain. This is another data set of the same source.
Assay [3] addresses talin R3-IVVI domain. This is another data set of the same source.
The target in assay [4] is talin R3-IVVI domain. This is another data set of the same source.

“DnaJ (from UniProt P08622 1-376) (natural protein)” yielded an intersection force (equal unfolding and refolding rates) of R3-IVVI, force-clamp chevron plot, with 1 µM DnaJ; control 9.7 pN in the assay with talin R3-IVVI domain [1] of 7.9 pN. Consider “DnaK (from UniProt P0A6Y8 1-638) (natural protein)”, for which, in the assay with talin R3-IVVI domain [2], the unfolding force (confirmed as intersection force of the chevron plot) of R3-IVVI with DnaK + DnaJ + ADP (DnaKJ-ADP) was 6.3 pN; the unfolding force (confirmed as intersection force of the chevron plot) of R3-IVVI with DnaK and ATP; ~6 pN with apo-DnaK stood at 7.6 pN. Besides, the intersection force (equal unfolding and refolding rates) of R3-IVVI, force-clamp chevron plot, with 3 µM apo-DnaK; control 9.7 pN with talin R3-IVVI domain [1] came out at 6 pN. In turn, “Hsp40, human recombinant protein (from UniProt P25685 1-340) (natural protein)” had an intersection force of R3-IVVI, chevron plot, with Hsp40; control 9.7 pN with talin R3-IVVI domain [3] of 7.8 pN.

Regarding “Hsp70, human recombinant protein (from UniProt P0DMV8 1-641) (natural protein)”, in the assay with talin R3-IVVI domain [4], the half-point force of R3-IVVI with Hsp70 was 7.2 pN; the half-point force of R3-IVVI with Hsp70 and its inhibitor pifithrin-µ (PFT-µ, binds the substrate-binding domain of Hsp70) was 9.5 pN. The same molecule yielded an intersection force of R3-IVVI, chevron plot, with Hsp70; control 9.7 pN in the assay with talin R3-IVVI domain [3] of 7.2 pN.

B1: oxidized DsbA (enzyme)
chain: AQYEDGKQYTTLEKPVAGAPQVLEFFSFFCPHCYQFEEVLHISDNVKKKLPEGVKMTKYHVNFMGGDLGKDLTQAWAVAMALGVEDKVTVPLFEGVQKTQTIRSASDIRDVFINAGIKGEEYDAAWNSFVVKSLVAQQEKAAADVQLRGVPAMFVNGKYQLNPQGMDTSNMDVFVQQYADTVKYLSEKK
modifications: oxidized (0.3% H2O2 overnight)
In the case of B1, in the assay with talin R3-IVVI domain [1], the intersection force (equal unfolding and refolding rates) of R3-IVVI, force-clamp chevron plot, with 60 µM DsbA; control 9.7 pN is 14.9 pN.

These data come from article PMC8979947.
